From paper PMC3448794 (Biochemistry, 2012) come the findings set out here.

The target in test [1] is T1, alpha-chain of cleaved human L-asparaginase (hASNase3) (human, UniProt Q7L266 1-167).
T1 sequence (looked up): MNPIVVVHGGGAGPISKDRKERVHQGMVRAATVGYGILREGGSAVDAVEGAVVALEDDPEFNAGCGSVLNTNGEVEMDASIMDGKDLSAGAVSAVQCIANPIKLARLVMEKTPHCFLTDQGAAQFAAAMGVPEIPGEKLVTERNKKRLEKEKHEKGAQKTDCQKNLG
Description: crystal structure.

The target of test [2] is T2, human L-asparaginase (hASNase3), cleaved state (alpha- and beta-chains) (human, UniProt Q7L266 1-167; Q7L266 168-308).
T2 sequence (looked up) 1: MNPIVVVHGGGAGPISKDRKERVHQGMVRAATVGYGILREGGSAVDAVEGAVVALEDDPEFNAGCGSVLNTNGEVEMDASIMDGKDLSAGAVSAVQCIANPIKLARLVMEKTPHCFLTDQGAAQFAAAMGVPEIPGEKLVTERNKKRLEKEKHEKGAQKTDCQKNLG
T2 sequence (looked up) 2: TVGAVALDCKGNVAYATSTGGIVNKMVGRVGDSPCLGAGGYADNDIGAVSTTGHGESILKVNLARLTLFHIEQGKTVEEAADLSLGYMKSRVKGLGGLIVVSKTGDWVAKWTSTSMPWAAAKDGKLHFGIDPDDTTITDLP
Description: crystal structure.

B1: beta-chain of cleaved human L-asparaginase (hASNase3) (domain or fragment, UniProt Q7L266 168-308, looked up)
chain: TVGAVALDCKGNVAYATSTGGIVNKMVGRVGDSPCLGAGGYADNDIGAVSTTGHGESILKVNLARLTLFHIEQGKTVEEAADLSLGYMKSRVKGLGGLIVVSKTGDWVAKWTSTSMPWAAAKDGKLHFGIDPDDTTITDLP
For B1, the binding result in test [1] is on record as “binds”.

B2: human L-asparaginase (hASNase3), uncleaved state (enzyme, UniProt Q7L266 1-308, looked up)
chain: MNPIVVVHGGGAGPISKDRKERVHQGMVRAATVGYGILREGGSAVDAVEGAVVALEDDPEFNAGCGSVLNTNGEVEMDASIMDGKDLSAGAVSAVQCIANPIKLARLVMEKTPHCFLTDQGAAQFAAAMGVPEIPGEKLVTERNKKRLEKEKHEKGAQKTDCQKNLGTVGAVALDCKGNVAYATSTGGIVNKMVGRVGDSPCLGAGGYADNDIGAVSTTGHGESILKVNLARLTLFHIEQGKTVEEAADLSLGYMKSRVKGLGGLIVVSKTGDWVAKWTSTSMPWAAAKDGKLHFGIDPDDTTITDLP
For B2, in test [2], the binding result is on record as “binds”.
